# Patent publication US8158585B2, “Cross-β structure comprising amyloid-binding proteins and methods for detection of the cross-β structure, for modulating cross-β structures fiber formation and modulating cross-β structure-mediated toxicity” (CrossBeta Biosciences B.V., priority 2002, dated 2012)
# Where no end group is shown, it is not given here.
# What was measured:
# Aβ fibrils = molecular target: T1, Aβ fibrils (Homo sapiens, UniProt P05067); test: Amyloid pull-down with insoluble Aβ fibers; format: binding; details: conditioned BHK medium
# T1 construct: Peptide Aβ (1-40), containing amino acids as present in the described human Alzheimer peptide; purchased Pepscan, Inc. (The Netherlands) or peptide synthesis facility at the Netherlands Cancer Institute; host or cells: synthetic peptide
# Method: Conditioned medium of BHK cells expressing GST-tagged tPA F, F-EGF, EGF, K1, F-EGF-K1, FXII F, HGFa F, Fn F4, Fn F5, Fn F4-5 and GST was used for amyloid binding assays. At first, constructs were adjusted to approximately equal concentration using Western blots. Qualitative binding of the recombinant fragments were evaluated using a “pull-down” assay. To this end, the recombinantly made fragments were incubated with either Aβ or IAPP fibrils. Since these peptides form insoluble fibers, unbound proteins can be easily removed from the fibers following centrifugation. The pellets containing the bound fragments were subsequently washed several times. Bound fragments were solubilized in SDS-sample buffer and analyzed by PAGE, as were unbound proteins in the supernatant fraction and starting material. The gels were analyzed using immunoblotting analysis with the anti-GST antibody Z-5.
# Aβ (1-40) = Aβ (1-40) (Homo sapiens, UniProt P05067); test: ELISA: binding of tPA-F-GST and RPTPμ-GST to human Aβ (1-40); set-up: Peptide Aβ (1-40), containing amino acids as present in the described human Alzheimer peptide; purchased Pepscan, Inc. (The Netherlands) or peptide synthesis facility at the Netherlands Cancer Institute; host or cells: synthetic peptide; details: detection with anti-GST 2F3
# Method: (§1) Binding of tPA-F-GST and RPTPμ-GST to fibrous amyloids human Aβ (1-40) and albumin-[…] was assayed with an ELISA. In brief, human Aβ (1-40), albumin-[…], or buffer only, were coated on a peptide I Immobilizer or a protein I Immobilizer, respectively. Wells were incubated with the purified GST-tagged constructs or control medium and binding was detected using primary anti-GST monoclonal antibody 2F3 and RAMPO. The wells were also incubated with […] of tPA in the presence of 10 mM of εACA. Binding of tPA is independent of the lysyl binding site located at the kringle 2 domain. Binding of tPA was measured using primary antibody 374B and RAMPO. Experiments were performed in triplicate and blank readings of non-coated wells were substracted.
# albumin-g6p = molecular target: T2, albumin-g6p (Bos taurus, UniProt P02769); test: ELISA: binding of tPA-F-GST and RPTPμ-GST to glycated albumin; set-up: species or system bovine; details: detection with anti-GST 2F3
# T2 construct: Bovine serum albumin (BSA) fraction V pH 7.0; host or cells: bovine serum, fraction V
# Method: as §1
# [1] = system: differentiated N1E-115 cells; test: N1E-115 cell detachment (methylene blue staining); format: cell-based, mouse; details: plasmin added with Aβ (25 μM), 48 hours
# Method: FIG. 4 is a set of graphs illustrating stimulation of tPA-mediated plasmin formation by Aβ and synergistic stimulation of cell detachment by plasminogen and Aβ. Panel A depicts that plasminogen (200 μg/ml) and tPA (200 pM) were incubated with Aβ (5 μM) or control buffer. Samples were taken from the reaction mixture at the indicated periods of time and plasmin activity was measured by conversion of the chromogenic plasmin substrate S-2251 at 405 nm. […] After 48 hours, the dead cells were washed away and the remaining adherent cells were stained with methylene blue. Plasmin cannot prevent Aβ-induced cell detachment. Panel C illustrates that N1E-115 cells were differentiated and received the indicated concentrations of plasminogen in the presence or absence of 10 μM Aβ. After 24 hours, cell detachment was assessed. […] Panel D is an immunoblot analysis of plasmin formation and laminin degradation. Differentiated N1E-115 cells were treated with or without Aβ (10 μM) in the absence or presence of added plasminogen. Addition of Aβ results in the formation of plasmin (bottom panel) and in degradation of laminin (top panel).
# FIG. 5 depicts graphs illustrating that carboxypeptidase B inhibits Aβ-stimulated tPA-mediated plasmin formation and cell detachment. […] Samples were taken from the reaction mixture at the indicated periods of time and plasmin activity was measured by conversion of the chromogenic plasmin substrate S-2251 at 405 nm. The reaction was performed in the absence or the presence of 50 μg ml^−1 carboxypeptidase B (CpB) and in the absence or presence of 3.5 μM carboxypeptidase inhibitor (CPI). CpB greatly attenuates A-stimulated plasmin formation. […] After 24 hours, the cells were photographed. Panel C illustrates that, subsequently, the cells were washed once with PBS and the remaining cells were quantified as percentage-adhered cells by methylene blue staining. In Panel D, the cells were treated as in Panels B and C and medium and cell fractions were collected and analyzed by Western blot using an anti-plasmin(ogen) antibody. Aβ stimulates plasmin formation that is inhibited by CpB.
# N1E-115 mouse neuroblastoma cells were routinely cultured in DMEM containing 5% FCS, supplemented with antibiotics. Cells were differentiated into post-mitotic neurons.^52 The cells were exposed to Aβ (50 μg ml^−1) for 24 hours in the presence or absence of 20 μg ml^−1 plasminogen in the presence or absence of 50 μg ml^−1 CpB. Cells were photographed, counted and lysed by the addition of 4× sample buffer (250 mM Tris pH 6.8, 8% SDS, 10% glycerol, 100 mM DTT, 0.01% w/v bromophenol blue) to the medium. The lysate, containing both adherent and floating (presumably dying and/or dead) cells, as well as the culture medium, were analyzed for the presence of plasminogen and plasmin, as well as for laminin, by Western blot analysis using specific antibodies against plasminogen (MoAb 3642, American Diagnostics), laminin (PoAb L9393, Sigma).
# Aβ = molecular target: T3, Aβ (Homo sapiens, UniProt P05067); test: Solid-phase binding ELISA of tPA, plasminogen and plasmin to coated Aβ; details: 50 mM ε-aminocaproic acid
# T3 construct: Peptide Aβ (1-40), containing amino acids as present in the described human Alzheimer peptide; purchased Pepscan, Inc. or peptide synthesis facility of the Netherlands Cancer Institute; host or cells: chemical synthesis
# Method: FIG. 3 is a set of graphs depicting binding of tPA, plasminogen and plasmin to Aβ. Aβ was coated onto plastic 96-well plates. Increasing concentrations of either (A) tPA or (B) plasmin(ogen) were allowed to bind to the immobilized peptide. After extensive washing, tPA and plasmin(ogen) binding was assessed by enzyme-linked immunosorbent assays using anti-tPA and anti-plasminogen antibodies. Binding of (C) tPA and (D) plasmin to Aβ in the presence of 50 mM ε-aminocaproic acid (ε-ACA) was assessed as in A and B.
# To test whether tPA, plasminogen and plasmin bind Aβ, solid-phase binding assays were performed. Aβ was coated onto plastic 96-well plates and binding of the peptide to either plasmin(ogen) or to tPA was assessed by overlaying the coated peptide with increasing concentrations of either tPA, plasminogen or plasmin. Binding was assessed using specific antibodies to either plasmin(ogen) or to tPA by performing ELISA. […] However, activated plasminogen (plasmin) does bind to Aβ and does so with a kD of 47 nM. […] To test this, use was made of the lysine analogue ε-aminocaproic acid (εACA) and binding of plasmin and tPA to Aβ was tested in its presence. […] In contrast, εACA has no effect on the tPA-Aβ interaction (FIG. 3, Panel C). Thus, it was concluded that plasmin binds to free lysines that were generated during the incubation period, presumably via its lysine-binding Kringle domain(s). In line with this, the kD of plasminogen Kringle domain binding to free lysines in fibrin is similar to the kD for plasmin binding to Aβ.
# Aβ (1-40), sequence (P05067 672-711): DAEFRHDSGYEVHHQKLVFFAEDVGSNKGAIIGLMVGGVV
# T2 sequence (P02769 25-607): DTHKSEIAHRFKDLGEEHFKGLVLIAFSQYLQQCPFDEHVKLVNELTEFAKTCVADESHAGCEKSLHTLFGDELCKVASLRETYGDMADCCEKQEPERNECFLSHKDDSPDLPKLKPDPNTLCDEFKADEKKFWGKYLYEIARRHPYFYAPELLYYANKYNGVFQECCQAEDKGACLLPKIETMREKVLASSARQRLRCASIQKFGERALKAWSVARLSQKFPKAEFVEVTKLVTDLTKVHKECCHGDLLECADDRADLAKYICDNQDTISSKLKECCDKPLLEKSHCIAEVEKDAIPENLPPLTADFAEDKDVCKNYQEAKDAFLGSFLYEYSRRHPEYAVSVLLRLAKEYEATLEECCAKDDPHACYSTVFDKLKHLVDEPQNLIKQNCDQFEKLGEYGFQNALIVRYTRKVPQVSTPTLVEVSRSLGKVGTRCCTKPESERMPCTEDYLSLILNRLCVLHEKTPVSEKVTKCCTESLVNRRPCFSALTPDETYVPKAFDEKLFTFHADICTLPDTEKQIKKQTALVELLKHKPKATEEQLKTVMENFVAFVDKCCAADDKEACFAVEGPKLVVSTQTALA
# T3 sequence (P05067 672-711): as the sequence (P05067 672-711) above
# T1 sequence (P05067 672-711): as above
Molecule,"binding to Aβ fibers (pull-down, Western blot) (Aβ fibrils)",binding of GST-tagged construct to human Aβ (1-40) (Aβ (1-40)),binding of GST-tagged construct to albumin-g6p (albumin-g6p),effect on Aβ-induced cell detachment [1],binding to Aβ in the presence of εACA (Aβ)
"tPA-F-GST: amino-terminal finger domain (F) of human tPA, residues Ser1-Ser50, with GST tag (SYQVICRDEKTQMIYQQHQSWLRPVLRSNRVEYCWCNSGRAQCHSVPVKS-{GST}; cysteine pairing not given here)",Efficient binding,bound,bound,,
plasmin: activated plasminogen (protein) KVYLSECKTGNGKNYRGTMSKTKNGITCQKWSSTSPHRPRFSPATHPSEGLEENYCRNPDNDPQGPWCYTTDPEKRYDYCDILECEEECMHCSGENYDGKISKTMSGLECQAWDSQSPHAHGYIPSKFPNKNLKKNYCRNPDRELRPWCFTTDPNKRWELCDIPRCTTPPPSSGPTYQCLKGTGENYRGNVAVTVSGHTCQHWSAQTPHTHNRTPENFPCKNLDENYCRNPDGKRAPWCHTTNSQVRWEYCKIPSCDSSPVSTEQLAPTAPPELTPVVQDCYHGDGQSYRGTSSTTTTGKKCQSWSSMTPHRHQKTPENYPNAGLTMNYCRNPDADKGPWCFTTDPSVRWEYCNLKKCSGTEASVVAPPPVVLLPDVETPSEEDCMFGNGKGYRGKRATTVTGTPCQDWAAQEPHRHSIFTPETNPRAGLEKNYCRNPDGDVGGPWCYTTNPRKLYDYCDVPQCAAPSFDCGKPQVEPKKCPGRVVGGCVAHPHSWPWQVSLRTRFGMHFCGGTLISPEWVLTAAHCLEKSPRPSSYKVILGAHQEVNLEPHVQEIEVSRLFLEPTRKDIALLKLSSPAVITDKVIPACLPSPNYVVADRTECFITGWGETQGTFGAGLLKEAQLPVIENKVCNRYEFLNGRVQSTELCAGHLAGGTDSCQGDSGGPLVCFEKDKYILQGVTSWGLGCARPNKPGVYVRVSRFVTWIEGVMRNN,,,,unable to ameliorate,completely abolished
"RPTPμ-GST: extracellular domain of receptor-like protein tyrosine phosphatase μ with GST tag, control (protein, UniProt P28827 21-742, looked up, extracellular domain GST tag, extracellular domain of receptor-like protein tyrosine phosphatase μ with GST tag, control) extracellular domain: ETFSGGCLFDEPYSTCGYSQSEGDDFNWEQVNTLTKPTSDPWMPSGSFMLVNASGRPEGQRAHLLLPQLKENDTHCIDFHYFVSSKSNSPPGLLNVYVKVNNGPLGNPIWNISGDPTRTWNRAELAISTFWPNFYQVIFEVITSGHQGYLAIDEVKVLGHPCTRTPHFLRIQNVEVNAGQFATFQCSAIGRTVAGDRLWLQGIDVRDAPLKEIKVTSSRRFIASFNVVNTTKRDAGKYRCMIRTEGGVGISNYAELVVKEPPVPIAPPQLASVGATYLWIQLNANSINGDGPIVAREVEYCTASGSWNDRQPVDSTSYKIGHLDPDTEYEISVLLTRPGEGGTGSPGPALRTRTKCADPMRGPRKLEVVEVKSRQITIRWEPFGYNVTRCHSYNLTVHYCYQVGGQEQVREEVSWDTENSHPQHTITNLSPYTNVSVKLILMNPEGRKESQELIVQTDEDLPGAVPTESIQGSTFEEKIFLQWREPTQTYGVITLYEITYKAVSSFDPEIDLSNQSGRVSKLGNETHFLFFGLYPGTTYSFTIRASTAKGFGPPATNQFTTKISAPSMPAYELETPLNQTDNTVTVMLKPAHSRGAPVSVYQIVVEEERPRRTKKTTEILKCYPVPIHFQNASLLNSQYYFAAEFPADSLQAAQPFTIGDNKTYNGYWNTPLLPYKSYRIYFQAASRANGETKIDCVQVATKGAATPKPVPEPEKQTDHTVK",,no binding,no binding,,
